T1: recombinant human CD123-Fc (human, UniProt P26951 19-305)
T1 construct: not shown: Fc part of CD123-Fc
T1 sequence: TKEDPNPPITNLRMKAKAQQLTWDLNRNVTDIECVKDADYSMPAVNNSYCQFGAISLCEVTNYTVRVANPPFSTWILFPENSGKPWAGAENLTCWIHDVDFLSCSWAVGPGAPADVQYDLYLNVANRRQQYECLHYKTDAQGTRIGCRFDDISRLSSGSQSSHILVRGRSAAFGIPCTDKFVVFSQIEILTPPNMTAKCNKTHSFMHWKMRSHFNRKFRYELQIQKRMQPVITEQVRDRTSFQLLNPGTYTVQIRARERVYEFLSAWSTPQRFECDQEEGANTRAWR


Molecular target: T1, recombinant human CD123-Fc
Test: phage ELISA, captured CD123-Fc
How it was run: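 Phage from BCMA panning colonies were rescued with VCSM13 helper phage and diluted 5× in blocking buffer. Plates coated with anti-human IgG1-Fc captured 5 nM target-Fc or IgG1-Fc, and binding was detected with HRP anti-M13. Ratio = A450 target/A450 IgG1-Fc, averaged over the clone's wells.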

Row | Binder | ELISA_avg
1 | SEQ ID NO: 593 (designed binder, D domain, on phage) MGSWFEFDARLMAINDRLWALGGSEAELAAFEYHIALFEDQLQMYKGKGNPEVEALTLEAVAINEELWAYRHN | 4 ratio A450 target/IgG1-Fc
2 | SEQ ID NO: 582 (designed binder, D domain, on phage) MGSWFEFEYRLDAIIDRLFALGGSEAELAEFESMIANFEYSLQEYKGKGNPEVEALYFEADAIVDELTAYRHN | 4 ratio A450 target/IgG1-Fc
3 | SEQ ID NO: 591 (designed binder, D domain, on phage) MGSWVEFDNRLFAIDERLWALGGSEAELAWFEEEIASFEDNLQKYKGKGNPEVEALQLEAFAIMEELDAYRHN | 3.3 ratio A450 target/IgG1-Fc
4 | SEQ ID NO: 588 (designed binder, D domain, on phage) MGSWMEFEDRLMAIVDRLWALGGSEAELADFEWNIAMFEEELQWYKGKGNPEVEALGDEAEAIEWELYAYRHN | 6.8 ratio A450 target/IgG1-Fc
5 | SEQ ID NO: 612 (designed binder, D domain, on phage) MGSWYEFFDRLDAIDERLWALGGSEAELAWFEAEIAEFEMELQGYKGKGNPEVEALDVEAHAIEMELFAYRHN | 3.7 ratio A450 target/IgG1-Fc
6 | SEQ ID NO: 592 (designed binder, D domain, on phage) MGSWFEFDDRLEAIFDRLWALGGSEAELAMFEFAIAEFEDALQEYKGKGNPEVEALYEEAVAIDEELYAYRHN | 4.1 ratio A450 target/IgG1-Fc
7 | SEQ ID NO: 583 (designed binder, D domain, on phage) MGSWLEFEYRLDAIYDRLFALGGSEAELAAFEQDIADFEKYLQYYKGKGNPEVEALWEEADAIMWELFAYRHN | 3.1 ratio A450 target/IgG1-Fc
8 | SEQ ID NO: 609 (designed binder, D domain, on phage) MGSWWEFEDRLYAIDDRLWALGGSEAELAQFEREIAQFEIWLQEYKGKGNPEVEALDDEATAINSELFAYRHN | 5.5 ratio A450 target/IgG1-Fc
9 | SEQ ID NO: 590 (designed binder, D domain, on phage) MGSWEEFLFRLEAIQDRLWALGGSEAELAWFEYEIASFEDVLQSYKGKGNPEVEALSTEAKAIDYELFAYRHN | 8.2 ratio A450 target/IgG1-Fc
10 | SEQ ID NO: 584 (designed binder, D domain, on phage) MGSWHEFEERLMAIEDRLWALGGSEAELAEFEQWIALFEYDLQEYKGKGNPEVEALGMEAFAINNELSAYRHN | 5.8 ratio A450 target/IgG1-Fc
11 | SEQ ID NO: 611 (designed binder, D domain, on phage) MGSWEEFEWRLDAIDERLWALGGSEAELATFEYEIAIFENELQQYKGKGNPEVEALDSEAYAIERELGAYRHN | 4.3 ratio A450 target/IgG1-Fc
12 | SEQ ID NO: 597 (designed binder, D domain, on phage) MGSWWEFDSRLDAIDFRLWALGGSEAELAWFEVEIADFEDWLQLYKGKGNPEVEALWHEADAIVTELYAYRHN | 3.2 ratio A450 target/IgG1-Fc
13 | SEQ ID NO: 603 (designed binder, D domain, on phage) MGSWVEFMDRLEAIEERLSALGGSEAELAFFEWEIAEFEEHLQVYKGKGNPEVEALEWEALAITEELAAYRHN | 4 ratio A450 target/IgG1-Fc
14 | SEQ ID NO: 605 (designed binder, D domain, on phage) MGSWEEFNWRLRAIDERLFALGGSEAELAWFEYDIAEFEEQLQVYKGKGNPEVEALRVEAAAIAEELYAYRHN | 5.4 ratio A450 target/IgG1-Fc
15 | SEQ ID NO: 589 (designed binder, D domain, on phage) MGSWEEFEDRLFAIDSRLWALGGSEAELAEFENIIASFEEVLQEYKGKGNPEVEALSVEAFAIDRELGAYRHN | 3.7 ratio A450 target/IgG1-Fc
16 | SEQ ID NO: 599 (designed binder, D domain, on phage) MGSWYEFQERLDAIDSRLWALGGSEAELAWFEYTIAEFEKELQMYKGKGNPEVEALGTEAVAISEELMAYRHN | 5.5 ratio A450 target/IgG1-Fc

Row | Binder | ELISA_avg
17 | SEQ ID NO: 587 (designed binder, D domain, on phage) MGSWIEFEDRLDAITDRLWALGGSEAELAEFEHQIAFFEEDLQWYKGKGNPEVEALHMEAEAIMEELGAYRHN | 9.5 ratio A450 target/IgG1-Fc
18 | SEQ ID NO: 596 (designed binder, D domain, on phage) MGSWIEFDERLDAIDFRLWALGGSEAELAWFEGWIAEFESDLQLYKGKGNPEVEALNEEANAIFHELSAYRHN | 7 ratio A450 target/IgG1-Fc
19 | SEQ ID NO: 585 (designed binder, D domain, on phage) MGSWYEFEERLDAIEDRLIALGGSEAELAIFEDIIAFFEQDLQYYKGKGNPEVEALEMEAEAISIELDAYRHN | 4.1 ratio A450 target/IgG1-Fc
20 | SEQ ID NO: 606 (designed binder, D domain, on phage) MGSWWEFEIRLDAIDERLWALGGSEAELAWFEQSIAFFENDLQVYKGKGNPEVEALRWEANAIIEELFAYRHN | 3.2 ratio A450 target/IgG1-Fc
21 | SEQ ID NO: 581 (designed binder, D domain, on phage) MGSWYEFSSRLNAIDDRLWALGGSEAELAYFETDIADFESLLQWYKGKGNPEVEALLNEADAIDYELYAYRHN | 3.8 ratio A450 target/IgG1-Fc
22 | SEQ ID NO: 600 (designed binder, D domain, on phage) MGSWEEFEDRLWAIDGRLYALGGSEAELAWFEQWIATFEEDLQDYKGKGNPEVEALEYEASAIFEELEAYRHN | 9.4 ratio A450 target/IgG1-Fc
23 | SEQ ID NO: 604 (designed binder, D domain, on phage) MGSWIEFMDRLWAIDQRLWALGGSEAELAWFEEEIAWFEEELQVYKGKGNPEVEALEWEATAISEELWAYRHN | 6.5 ratio A450 target/IgG1-Fc
24 | SEQ ID NO: 595 (designed binder, D domain, on phage) MGSWTEFDERLDAIDWRLEALGGSEAELAWFEGDIALFEQYLQVYKGKGNPEVEALMEEADAIKAELDAYRHN | 4.5 ratio A450 target/IgG1-Fc
25 | SEQ ID NO: 601 (designed binder, D domain, on phage) MGSWFEFGDRLEAIDERLYALGGSEAELAQFEWWIAEFEHHLQDYKGKGNPEVEALEYEADAIWGELHAYRHN | 4.5 ratio A450 target/IgG1-Fc
26 | SEQ ID NO: 610 (designed binder, D domain, on phage) MGSWDEFEFRLEAIDSRLWALGGSEAELAVFEYEIAQFEFMLQEYKGKGNPEVEALGMEAWAIENELFAYRHN | 3.6 ratio A450 target/IgG1-Fc
27 | SEQ ID NO: 607 (designed binder, D domain, on phage) MGSWYEFEWRLDAIDRRLWALGGSEAELADFEEEIADFEWMLQNYKGKGNPEVEALVDEASAIQTELWAYRHN | 10 ratio A450 target/IgG1-Fc
28 | SEQ ID NO: 594 (designed binder, D domain, on phage) MGSWVEFDSRLAAIDYRLEALGGSEAELAWFEYTIANFEHTLQMYKGKGNPEVEALVYEAHAIATELQAYRHN | 3.4 ratio A450 target/IgG1-Fc
29 | SEQ ID NO: 586 (designed binder, D domain, on phage) MGSWHEFEKRLYAIEDRLIALGGSEAELAWFEDSIAWFEWDLQMYKGKGNPEVEALNEEADAIYQELDAYRHN | 3.6 ratio A450 target/IgG1-Fc
30 | SEQ ID NO: 602 (designed binder, D domain, on phage) MGSWFEFNDRLDAISERLSALGGSEAELAYFEWQIAVFEKTLQNYKGKGNPEVEALTLEANAIFEELEAYRHN | 3.9 ratio A450 target/IgG1-Fc
31 | SEQ ID NO: 608 (designed binder, D domain, on phage) MGSWYEFVYRLRAIDERLDALGGSEAELAMFEFEIAFFEDQLQRYKGKGNPEVEALVDEAQAIDFELFAYRHN | 4.5 ratio A450 target/IgG1-Fc
32 | SEQ ID NO: 598 (designed binder, D domain, on phage) MGSWYEFDERLDAIFDRLWALGGSEAELAYFEQVIATFEKTLQRYKGKGNPEVEALDTEAKAISWELDAYRHN | 3 ratio A450 target/IgG1-Fc

Reference: patent US20230125550A1 (ARCELLX, published 2023)
